Measurements from the supplement of paper PMC7877785.
± gives the uncertainty stated by the source.

Test: self-splicing fitness, log relative to wild type (ln ratio); higher = more splicing; Tetrahymena group I intron in knt gene, E. coli kanamycin selection, DiMSum; sequences stand for … in CUCUCU…GGAGGGAAAAGUUAUCAGGCAUGCACCUGGUAGCUAGUCUUUAAACCAAUAGAUUGCAUCGGUUUAAAAGGCAAGACCGUCAAAUUGCGGGAAAGGGGUCAACAGCCGUUCAGUACCAAGUCUCAGGGGAAACUUUGAGAUGGCCUUGCAAAGGGUAUGGUAAUAAGCUGACGGACAUGGUCCUAACCACGCAGCCAAGUCCUAAGUCAACAGAUCUUCUGUUGAUAUGGAUGCAGUUCACAGACUAAAUGUCGGUCGGGGAAGAUGUAUUCUUCUCAUAAGAUAUAGUCGGACCUCUCCUUAAUGGGAGCUAGCGGAUGAAGUGAUGCAACACUGGAGCCGCUGGGAACUAAUUUGUAUGCGAAAGUAUAUUGAUUAGUUUUGGAGUACUCGUGGUCG
Summary of the method: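 Fitness was computed with DiMSum as the error-weighted combination of replicate fold changes, kanamycin versus none, each normalised to wild type. The library randomised all eight intron nucleotides of the P1ex region, with the intron placed in the knt kanamycin-resistance gene on pET-22b(+) in E. coli BL21(DE3). Six replicate transformations were grown overnight at 37°C or 30°C on LB agar with or without 25 μg/mL kanamycin, plus 100 μg/mL carbenicillin, 50 μM IPTG and 0.2% rhamnose. Pooled colonies were amplicon-sequenced on an Illumina HiSeq 2500.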

For GUCGAGCAAUAUUACGCCUU, the “self-splicing fitness (ln)” value (30 °C) was -1.46 ± 0.28 and the “self-splicing fitness (ln)” value (37 °C) was -1.77 ± 0.41.
With ACCCAGCAAUAUUACGAAAU the “self-splicing fitness (ln)” value (30 °C) was -1.42 ± 0.07 and the “self-splicing fitness (ln)” value (37 °C) was -1.21 ± 0.083.
In the case of UCACAGCAAUAUUACGAGUU, the “self-splicing fitness (ln)” value (30 °C) is reported as -3.54 ± 0.17 and the “self-splicing fitness (ln)” value (37 °C) is reported as -2.08 ± 0.14.
In the case of GGUUAGCAAUAUUACGUGAG, the “self-splicing fitness (ln)” value (30 °C) is reported as -0.894 ± 0.098 and the “self-splicing fitness (ln)” value (37 °C) is reported as -0.197 ± 0.12.
For CGUGAGCAAUAUUACGCCAC, the “self-splicing fitness (ln)” value (30 °C) was -1.74 ± 0.35.
For GUCUAGCAAUAUUACGACAU, the “self-splicing fitness (ln)” value (30 °C) was -0.643 ± 0.014 and the “self-splicing fitness (ln)” value (37 °C) was -0.146 ± 0.032.
For CUCUAGCAAUAUUACGCUGA, the “self-splicing fitness (ln)” value (30 °C) was -1.6 ± 0.21 and the “self-splicing fitness (ln)” value (37 °C) was -2.31 ± 0.27.
For UCAUAGCAAUAUUACGGCUC, the “self-splicing fitness (ln)” value (30 °C) was -2.73 ± 0.24 and the “self-splicing fitness (ln)” value (37 °C) was -1.78 ± 0.26.
In the case of AUUGAGCAAUAUUACGGCGC, the “self-splicing fitness (ln)” value (30 °C) is reported as -0.865 ± 0.23 and the “self-splicing fitness (ln)” value (37 °C) is reported as -0.384 ± 0.17.
In the case of AUGAAGCAAUAUUACGCUUU, the “self-splicing fitness (ln)” value (30 °C) is reported as -3.68 ± 0.2 and the “self-splicing fitness (ln)” value (37 °C) is reported as -2.11 ± 0.21.
With GCUAAGCAAUAUUACGAACU the “self-splicing fitness (ln)” value (30 °C) was -0.229 ± 0.079 and the “self-splicing fitness (ln)” value (37 °C) was 0.203 ± 0.095.
In the case of UCCUAGCAAUAUUACGUAUC, the “self-splicing fitness (ln)” value (30 °C) is reported as -2.65 ± 0.14 and the “self-splicing fitness (ln)” value (37 °C) is reported as -2.44 ± 0.21.
In the case of UGGUAGCAAUAUUACGCCUC, the “self-splicing fitness (ln)” value (30 °C) is reported as -1.82 ± 0.39 and the “self-splicing fitness (ln)” value (37 °C) is reported as -2.03 ± 0.39.
In the case of AGAGAGCAAUAUUACGUAAA, the “self-splicing fitness (ln)” value (30 °C) is reported as -3.76 ± 0.31 and the “self-splicing fitness (ln)” value (37 °C) is reported as -3.12 ± 0.31.
In the case of UCUGAGCAAUAUUACGUUUG, the “self-splicing fitness (ln)” value (30 °C) is reported as -4.82 ± 0.29 and the “self-splicing fitness (ln)” value (37 °C) is reported as -1.81 ± 0.15.
With ACACAGCAAUAUUACGGCUU the “self-splicing fitness (ln)” value (30 °C) was -0.496 ± 0.04 and the “self-splicing fitness (ln)” value (37 °C) was -0.0695 ± 0.057.
In the case of CGCCAGCAAUAUUACGGAAC, the “self-splicing fitness (ln)” value (30 °C) is reported as -2.64 ± 0.23 and the “self-splicing fitness (ln)” value (37 °C) is reported as -1.52 ± 0.24.
In the case of CCGUAGCAAUAUUACGUAUG, the “self-splicing fitness (ln)” value (30 °C) is reported as -0.772 ± 0.082 and the “self-splicing fitness (ln)” value (37 °C) is reported as 0.203 ± 0.12.
In the case of AGUAAGCAAUAUUACGCAUC, the “self-splicing fitness (ln)” value (30 °C) is reported as -4.12 ± 0.29 and the “self-splicing fitness (ln)” value (37 °C) is reported as -1.48 ± 0.27.
For UCCCAGCAAUAUUACGGCAC, the “self-splicing fitness (ln)” value (30 °C) was -3.11 ± 0.12 and the “self-splicing fitness (ln)” value (37 °C) was -1.88 ± 0.15.
In the case of UUUUAGCAAUAUUACGAUAC, the “self-splicing fitness (ln)” value (30 °C) is reported as -3.18 ± 0.45.
For CACAAGCAAUAUUACGCGAG, the “self-splicing fitness (ln)” value (30 °C) was -1.89 ± 0.092 and the “self-splicing fitness (ln)” value (37 °C) was -0.699 ± 0.091.
For AAAUAGCAAUAUUACGAUCC, the “self-splicing fitness (ln)” value (30 °C) was -0.358 ± 0.14 and the “self-splicing fitness (ln)” value (37 °C) was -0.695 ± 0.17.
In the case of UUUCAGCAAUAUUACGGACA, the “self-splicing fitness (ln)” value (30 °C) is reported as -0.569 ± 0.09 and the “self-splicing fitness (ln)” value (37 °C) is reported as -0.204 ± 0.1.
With GUUUAGCAAUAUUACGCGUA the “self-splicing fitness (ln)” value (30 °C) was -0.947 ± 0.14 and the “self-splicing fitness (ln)” value (37 °C) was -0.606 ± 0.15.
For GGUCAGCAAUAUUACGAUAA, the “self-splicing fitness (ln)” value (30 °C) was 0.11 ± 0.092 and the “self-splicing fitness (ln)” value (37 °C) was 0.447 ± 0.15.
With UUGCAGCAAUAUUACGCGAG the “self-splicing fitness (ln)” value (30 °C) was -3.18 ± 0.12 and the “self-splicing fitness (ln)” value (37 °C) was -1.73 ± 0.12.
With GACAAGCAAUAUUACGGUAG the “self-splicing fitness (ln)” value (30 °C) was -1.84 ± 0.098 and the “self-splicing fitness (ln)” value (37 °C) was -0.222 ± 0.092.
In the case of AGACAGCAAUAUUACGCCUC, the “self-splicing fitness (ln)” value (30 °C) is reported as -4.48 ± 0.36 and the “self-splicing fitness (ln)” value (37 °C) is reported as -2.08 ± 0.21.
In the case of AUACAGCAAUAUUACGUUUG, the “self-splicing fitness (ln)” value (30 °C) is reported as -2.93 ± 0.11 and the “self-splicing fitness (ln)” value (37 °C) is reported as -2.35 ± 0.14.
For GUCCAGCAAUAUUACGAGGG, the “self-splicing fitness (ln)” value (30 °C) was -2.29 ± 0.24 and the “self-splicing fitness (ln)” value (37 °C) was -1.78 ± 0.24.
For UAGCAGCAAUAUUACGAGCA, the “self-splicing fitness (ln)” value (30 °C) was -1.48 ± 0.13 and the “self-splicing fitness (ln)” value (37 °C) was 0.249 ± 0.13.
With UUAGAGCAAUAUUACGGACG the “self-splicing fitness (ln)” value (30 °C) was -1.73 ± 0.15 and the “self-splicing fitness (ln)” value (37 °C) was -0.509 ± 0.29.
In the case of CCAGAGCAAUAUUACGUCCG, the “self-splicing fitness (ln)” value (30 °C) is reported as -1.7 ± 0.12 and the “self-splicing fitness (ln)” value (37 °C) is reported as 0.0963 ± 0.14.
In the case of AAUAAGCAAUAUUACGCAAU, the “self-splicing fitness (ln)” value (30 °C) is reported as -1.59 ± 0.075 and the “self-splicing fitness (ln)” value (37 °C) is reported as -1.22 ± 0.082.
In the case of GUAGAGCAAUAUUACGAUCU, the “self-splicing fitness (ln)” value (30 °C) is reported as -0.617 ± 0.12 and the “self-splicing fitness (ln)” value (37 °C) is reported as -0.114 ± 0.15.
For GAAAAGCAAUAUUACGAUCU, the “self-splicing fitness (ln)” value (30 °C) was -0.472 ± 0.075 and the “self-splicing fitness (ln)” value (37 °C) was -0.478 ± 0.085.
For AUCGAGCAAUAUUACGGUGU, the “self-splicing fitness (ln)” value (30 °C) was -2.74 ± 0.1 and the “self-splicing fitness (ln)” value (37 °C) was -1.71 ± 0.14.
